In the supplement of paper PMC9732359:
± gives the uncertainty stated by the source.

test: protein stability index of a GFP-peptide fusion (yeast GPS) (PSI 1-4); higher = more stable; sorted into four equal gates, so the index is relative within each strain; conditions: san1∆
Outline: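 Tiled yeast protein peptides of 17 residues were each joined downstream of GFP, on plasmids that also express Cherry. The pooled library was maintained in yeast, and mid-log cultures in leucine-free medium were sorted into four equal gates on the GFP/Cherry ratio. Plasmids from every gate were amplified by PCR and sequenced on Illumina, with barcodes linking reads to strains. The protein stability index of a peptide is its gate-number-weighted read frequency summed over the gates.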

| Sequence | protein stability index |
| --- | --- |
| NEAGRKLSDIFLSKPSK [SNF2] | 3.21 ± 0.081 |
| NEAPPKTSLADWQKEDG [YMR153W/NUP53] | 2.56 ± 0.16 |
| NEDENIQLIKILNSHFD [YJL041W/NSP1] | 3.142 ± 0.03 |
| NEENDLDVDPAKRIRVS [RPB2] | 3.11 ± 0.12 |
| NEKEQLSFINPKTGKVE [SEC65] | 2.98 ± 0.064 |
| NELQEERLKVPILVTLV [POP6] | 1.84 ± 0.053 |
| NEMLLKRVTKVKRLLFT [MTW1] | 1.21 ± 0.11 |
| NEQEEKSEEVKAEDDTG [RPC37] | 2.94 ± 0.2 |
| NETIIDNFSPHQNVIIG [SMC3] | 2.29 ± 0.13 |
| NEVCLEKENRFEIVDRE [SMC4] | 3.1 ± 0.1 |
| NEVYSAYVVNDTAPKPN [DLS1] | 2.95 ± 0.099 |
| NFLETIASTEKPENKTD [SIR4] | 2.77 ± 0.11 |
| NFLLPDIFGDSELFDEW [ISW2] | 2.79 ± 0.07 |
| NFNASLQLTTNTEQGDS [SNM1] | 2.49 ± 0.055 |
| NGDKKVDIYSLPLISTD [YMR129W/POM152] | 2.88 ± 0.034 |
| NGGDKELEMIGGTNEDD [YCS4] | 2.46 ± 0.22 |
| NGGNNTQQPGTNSHYNN [SNF2] | 3.04 ± 0.054 |
| NGKDSEIMYTGVSISVS [SMC3] | 2.83 ± 0.1 |
| NGNWEVGVHIADVTHFV [DIS3] | 2.9 ± 0.047 |
| NGQEQQGPVKNTQLHGP [RGR1] | 3.05 ± 0.052 |
| NGSEKVLIAQERSAGNI [RPB2] | 3.12 ± 0.12 |
| NGTMINEVIDKLKNENT [PCI8] | 2.84 ± 0.047 |
| NGVIIAADNLGSYGSLL [PRE4] | 2.92 ± 0.21 |
| NGVVIATEKKSSSPLAM [PRE8] | 2.55 ± 0.26 |
| NHASMDVYNRELDEHTT [BRR2] | 3.26 ± 0.047 |
| NHGGSLGKYDLTVIEKL [SRP68] | 3.53 ± 0.14 |

| Sequence | protein stability index |
| --- | --- |
| NHNGSALLIEVFTALLR [ITC1] | 1.47 ± 0.094 |
| NIALVSKLRNNIRSQLL [SRP54] | 2.5 ± 0.053 |
| NIELHSLYTSREPRVVS [PUP1] | 3.22 ± 0.09 |
| NIKSNDFSIRKTCAKSV [ECM29] | 2.27 ± 0.18 |
| NILALNLVSLLIIVTRK [YML031W/NDC1] | 1.2 ± 0.11 |
| NILTTHLSHPGTNKDMI [ECM29] | 2.15 ± 0.09 |
| NINFASGVKNDILQSLS [CDC53] | 1.65 ± 0.053 |
| NIPRRELKINLPLTEHK [SRB4] | 3.23 ± 0.058 |
| NIVKQNEGIDLDTYRER [SMC2] | 3.24 ± 0.079 |
| NKANIQALIHGLNRHYY [RPN11] | 2.21 ± 0.095 |
| NKDASLALQRGATVFVN [DPB4] | 2.88 ± 0.067 |
| NKDLSELVIRLEKDAAD [YIL149C/MLP2] | 3.2 ± 0.061 |
| NKELPINHTILGKLQDV [RPN8] | 2.5 ± 0.064 |
| NKENDNVPSTKFNAAPE [SNF12] | 3.17 ± 0.06 |
| NKEYTLVHGIFGAKMSR [SIN4] | 3.15 ± 0.19 |
| NKKIGKRPPEIMSTEAH [SIR4] | 3.04 ± 0.09 |
| NKKSEQALDISKKGKPT [SRP72] | 2.81 ± 0.061 |
| NKLDEYHGLYTNYEMSY [LIN1] | 1.78 ± 0.093 |
| NKLMEKDFQVNKEIKPY [SIR4] | 3.12 ± 0.059 |
| NKLRQQAIAKNNPQVVN [SNF5] | 1.81 ± 0.049 |
| NKNGENKKIGKRPPEIM [SIR4] | 3.28 ± 0.14 |
| NKNLPFVWLSSEENIGS [SWI1] | 1.59 ± 0.063 |
| NKRLSRGKKGLKKKVVD [RPS1B] | 2.75 ± 0.24 |
| NKTLTLDLKECYQFAEY [ARP7] | 1.9 ± 0.17 |
| NKTVNEAAKPSLSFGSG [YJL041W/NSP1] | 2.08 ± 0.21 |
| NLATKGMVKLNEYPVAD [REC8] | 1.46 ± 0.074 |

| Sequence | protein stability index |
| --- | --- |
| NLEFNYTKPYPNFEASF [SMC2] | 2.43 ± 0.15 |
| NLEKNYLAKLSKQLSLE [IRR1] | 2.55 ± 0.13 |
| NLEQINEDLEDGHYIEE [REC8] | 2.98 ± 0.16 |
| NLIGVITHQGANSESGH [UBP6] | 3.22 ± 0.069 |
| NLLKVSVDICNNSKSRY [ECM29] | 2.9 ± 0.052 |
| NLLLSASRDKTLISWKL [ASC1] | 3.21 ± 0.05 |
| NLLQISAAELERLDKDK [SNF5] | 2.91 ± 0.18 |
| NLLTPQPTNFTTKRLWS [MCD1] | 2.73 ± 0.064 |
| NLNAFVDFSKYNTNFNL [SRP72] | 3.09 ± 0.048 |
| NLQTFTHEQWSNIQRNV [SRP72] | 3.01 ± 0.058 |
| NLRRHSDIVLDKKVTLI [SIN4] | 2.87 ± 0.034 |
| NLSSNVNFTEIGGLIPQ [YCS4] | 2.49 ± 0.08 |
| NLYDDVKCWSKFIEKFQ [MED1] | 3.27 ± 0.14 |
| NLYMLVTTCVYLACKVE [SSN8] | 1.62 ± 0.25 |
| NMGSLLGLCLVIQIVTG [COB] | 2.59 ± 0.061 |
| NMKVTILHGSKSQEQRE [PRP28] | 3.25 ± 0.046 |
| NMMNQVGEEETSQKMKK [SRP54] | 3.33 ± 0.076 |
| NMNLNPQMFLNQQAQAR [GAL11] | 2.37 ± 0.056 |
| NNFRESDIIILKGEIED [SIR4] | 2.32 ± 0.13 |
| NNIVSVLTAGVNSVAIK [RPN11] | 2.66 ± 0.078 |
| NNNINENELFNDRKQTT [SSN2] | 2.87 ± 0.1 |
| NNNNAPIIIYGTENTER [YOR098C/NUP1] | 2.83 ± 0.045 |
| NNNNNNNNNNNNDDNGN [MED2] | 3.227 ± 0.029 |
| NNSNSNNNSSNEKEQLS [SEC65] | 2.79 ± 0.031 |
| NNVNEYSYTTIVLSDQT [YJL039C/NUP192] | 3.09 ± 0.045 |
| NNYDDFMLSDDEGMESI [RRI2] | 3.37 ± 0.18 |

| Sequence | protein stability index |
| --- | --- |
| NPHDTLNRIKKYLLTQR [PRP8] | 2.25 ± 0.11 |
| NPLMYSGGNNTATIINN [PCI8] | 3.12 ± 0.05 |
| NQFKRIDTLLYLMTYPQ [RET1] | 1.48 ± 0.14 |
| NQILQTEIENYLLENNQ [YDL116W/NUP84] | 2.19 ± 0.066 |
| NQNFSLTFQPQQQTNAL [GRR1] | 3.02 ± 0.067 |
| NQQAQARQQVAQQLRNQ [GAL11] | 2.45 ± 0.14 |
| NQSTIYEDEELSRAEYD [LIN1] | 3.15 ± 0.058 |
| NRAARDRRAQRVAEKRD [RPL19A] | 2.85 ± 0.089 |
| NRIIKADDHASVQINVA [RPS21A] | 2.99 ± 0.052 |
| NRKIYQFTLYDRELNEV [SMC3] | 2.76 ± 0.13 |
| NRKRIVTLRKSLYTNTS [RPL3] | 1.66 ± 0.087 |
| NRLEKEQSVKTQNSRHY [LIN1] | 2.52 ± 0.13 |
| NRLSNPQKNLLLKGPAS [YOR098C/NUP1] | 2.68 ± 0.054 |
| NRPDNKNAQYHLLVKQG [RPN7] | 2.79 ± 0.05 |
| NRQICLVQKTVQESGNI [GRR1] | 2.81 ± 0.064 |
| NRSAKNSKNDSANVELF [YCS4] | 2.94 ± 0.12 |
| NRVPDGFQDRSLPHFPK [RPO31] | 3.02 ± 0.11 |
| NRYAFSQPTNSTTTSLH [SMC4] | 2.14 ± 0.11 |
| NSGNSNSNSNQQSTDAD [RPT1] | 2.48 ± 0.09 |
| NSINKTTVPFKESDDPS [POP1] | 2.71 ± 0.072 |
| NSIRAREVENSVSLLNS [SMC1] | 3.09 ± 0.071 |
| NSMEYTGKITKMFQDIR [CDC53] | 2.96 ± 0.085 |
| NSNQQQNPKLFQTIFSK [SIN4] | 3.11 ± 0.1 |
| NSNTNLNSLSPQAILAK [SWI1] | 1.92 ± 0.054 |
